The nanobody polyreactivity screen of Harvey et al. (2022)

Assay: yeast display, Sf9 membrane polyspecificity reagent, FACS + sequencing; frameworks hold sequencing errors
Procedure, shortened: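 Nanobodies came from a synthetic yeast display library in Saccharomyces cerevisiae BJ5465, induced with galactose for 36–48 hours and stained for 1 hour at 4 °C with 10% biotinylated, detergent-solubilized Sf9 membrane reagent. Cells were enriched on streptavidin microbeads and then FACS-sorted, with low and high (top ~1%) gates set on anti-HA fluorescence for expression and streptavidin fluorescence for reagent binding. Each polyreactivity label reflects the gate a clone came from. Genes were amplified by colony PCR, sequenced by MiSeq 2 × 250 and filtered by CDR length.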

QVQLVESGGGLVQAGGSLRLSCAASGLTFNYYAMGWYRQAPGKERELVAAITSSGGRTYYADSVKGRFTISRDNAKNTFYLQMNSLKPEDTAVYYCNTVSYRQGAVWFRYDYWGQGTQVTVSS
polyreactivity (PSR sort gate): high polyreactivity

QVQLVESGGGLVQAGGSLRLSCAASGIFFQQYAMGWYRLAPGKERELVAAISRGGTRTYYADSVKGRFTISRDNAKNTGYLQMNSLKPEDTAVYYCAADRGYVSYDYWGQGTQVTVSS
polyreactivity (PSR sort gate): high polyreactivity

QVQLVESGGGLVQAGGSLRLSCAASGRTFVGNSMGWYRQAPGKERELVADITWSGDITYYADSVKGRFTISRDNAKNTVYLQMNSLKPEDTAVYYCAADYHRRRTDYDYWGQGTQVTVSS
polyreactivity (PSR sort gate): low polyreactivity

QVQLVESGGGLVQAGGSLRLSCAASGSFFVDDAMGWYRQAPGKERELVATISSDVSTYYADSVKGRFTISRDNAKTTVYIQMNSLKPEDTAVYYCAATVSLHWAYSFSLYLEDDYWGQATQVTVSS
polyreactivity (PSR sort gate): low polyreactivity

QVQLVESGGGLVQAGGSLRISCAASGLIFYGYVMGWYRQAPGKEREFVAAITLSGGRTYYADSVKGRFTISRDNAKNTVYLQMNSLKPEDTAVYYCAARGPFRPYGAVGRQYDYWGQGTQVTVSS
polyreactivity (PSR sort gate): high polyreactivity

QVQLVESGGGLVQAGGSLRLSCAASGRIFPYNVMGWYRPATGKERELVAAISWSGGRTYYADSVKGRFTISRDNAKNTVYLQMISLKPEDTAVYYCNTRTLVAMGYWGQGTQVTVSS
polyreactivity (PSR sort gate): high polyreactivity

QVQLVESGGGLVQAGGSLRLSCAASGFTFSQYAAMGWYRQAPGKERELVAAINISGSTNYADSVKGRFTISRDNAKNTVYLQMNSLKPEDTAVYYCNADVAPGIFYGYDSWGQGTQVTVSS
polyreactivity (PSR sort gate): low polyreactivity

QVQLVESGGGLVQAGGSLRLSCAASGSTFTINVMGWYRQAPGKERELVAAINGGGRTNYADSVKGRFTISRDNAKNTVYLQMNSLKPEDTAVYYCATRYSHNSGFDYWGQGTQVTVSS
polyreactivity (PSR sort gate): low polyreactivity

QVQLVESGGGLVQAGGSLRLSCAASGSIFLWYTMGWYRQAPGKERELVAAISRTGGSTYYADSVKGRFTISRDNAKNTVYLQMNSLKPEETAVYYCAASFRPRSSRDYYYGYGYWGQGTQVTVSS
polyreactivity (PSR sort gate): high polyreactivity

QVQLVESGGGLVQAGGSLRLSCAASGRIRYAMGWYRQAPGKERELVAGIRWSGTSTYYADSVKGRFTISRDNAKNTVYLQMNSLKPEDTAVYYCNAKAQSRYVRYGYWGQGTQVSVSS
polyreactivity (PSR sort gate): high polyreactivity

QVQLVESGGGLVQAGGSLRLSCAASGSILVQNAMGWYRQAPGKERELVAVINSGDSTNYADSVKGRFTISRDNAKNTVFLQMNSLKPEDTAVYYCAVDDVSYYYLRAYNYELSWYGSGLDYWGQGTQVTVSS
polyreactivity (PSR sort gate): low polyreactivity

QVQLVESAGGLVQAGGSLRISCAASGRNFSTNAMGWYRQAPGKEMELVAAITSRGGSTYYADSVKGRFTISRDNAKNTVYLQMNSLIPEDPAVYYCAVDPLYYKTHYGTLGYYYWGQGTQVTVSS
polyreactivity (PSR sort gate): low polyreactivity

QVQLVESGGGLVQAGGSLRLICAASGSTFNSYTMGWYRQAPGKERELVAAISSGGITYYADSEKGRFTISRDNAKNTVYLLMNSLKPEDTAVYYCADRRYRYGYNYWGQGTQVTVSS
polyreactivity (PSR sort gate): high polyreactivity

QVQLVESGGGLVQAGGSLRLSCAASGRTFPVYAMGRYRPAPGKERELVAAISWSGGTTYYADSVPGRFTISRDNAKNTVYLQKHSLKPEDTAVYFCAARFGVRRRYDYWGQGTQVTVSS
polyreactivity (PSR sort gate): high polyreactivity

QVQLQESGGGLVQAGGSLRMRCAASRNISGSSDLGWYHQAPGKEREFVASITSGGTTYYADSVKGRFTISRDNAKNTVYLQMNSLKPEDTAVYYCAVGDPADAEFGYWGQGTQVTVSS
polyreactivity (PSR sort gate): low polyreactivity

QVQLVESGGCLVQAGGSLRLSCAASGSTFWSYAMGLYRQAPGKARELVAVIYRGGSTNYADSVKGRFTISRDNAKNTVYVQMNSLKREDTAVYYCASRYKTAEYYYWGQGTQVTVSS
polyreactivity (PSR sort gate): high polyreactivity

QVQLVESGGCLVQAGGSLRLSCAASGLTFIVYAMGWYRQAPGKERELVADITWSGGSTYYADSVKGRYTISRDNAKITVYLQMNSLKPVDTAVYYCNRQSAKIMDYWGQGTQVNVSS
polyreactivity (PSR sort gate): low polyreactivity

QVQLVETGGCLVQAGGSLRLSCAASGSTLHYYAMGWSRQAPGKQREFVAGISRYGGRTYNADSVKGRFTISRDNAKNTVYLQMNSLKPEDTAVYYCNAVLVGYRPYREFDHWGQGTQVTVSS
polyreactivity (PSR sort gate): high polyreactivity

QVQLVESGGGLVQAGGSLRLSCAASGRTFYRYAMGWYRQAPGKERELVAAITRRSGNTYYADSVKGRFTISRDNAKNTVYLQMNSLKPEDTAVYYCAADPETWSPHYESLGYYWGQGTQVTVSS
polyreactivity (PSR sort gate): high polyreactivity

QVQHVESGGGLVQAGGSLRLSCAASGRIFDLNAMGWYRQATGKERELVAAISYSGGRTFSADSVKRRFTISRDNAKNTVYLQMNSLKPEDTAVYYCAAVAYLNWTPHYYWGQGTQVTVSS
polyreactivity (PSR sort gate): low polyreactivity

QVQLVDSGGGLVQAGGSLRLSCAASGSILYHYAMGWYRQAPGKERELVAGISWRGGSTYYADSVKGRFTISRDNAKNTVYLQMNSLKPEATAVYYCATQRYPYRFYAFQYYYWGQGTQVTVSS
polyreactivity (PSR sort gate): low polyreactivity

QVQLVESGGGLVQAGGSLRLSCAASGSTFYYYTMGWYRQAPGKERELVAISWDGDSTYSADSVKGRFTISRDNAKNTVYLQMNSLKPEDTAVYYCAAADYYLPDDVSDYVDANFDYWGQGTQVTVSS
polyreactivity (PSR sort gate): low polyreactivity

QVQLVDSGGGLVQAGGSLRLSCAASGRIFGQYAMGWYRDATGKERELVAAISWRGGTTYYADSVKGRFTISRDNAKNTVYLQMNSLKPEDTAVFYCNADVWVYPYDYWGQGTQVTVSS
polyreactivity (PSR sort gate): low polyreactivity

QVQLVESGGGLVQAGGSLRLSCAASGRIFSINVKGWYRHAPGKERELVAAISKRGGSTYYADSVKGRFTISRDNAKNTVYLQMNSLKPEDTAVYYCAARRHYTYGNGPSRGGQMDYWGQGTQVTVSS
polyreactivity (PSR sort gate): high polyreactivity

QVQLVESGGGLVQAGGSLRLSCAASGRIFYRNAMGWYRQAPGKERELVAGITRGGSTNYADSVKGRFTISRDNAKNTVYLQMNSLKPEDTAVYYCAKAIPAKFYSEAGYDYWGQGTQVTVSS
polyreactivity (PSR sort gate): low polyreactivity

QVQLEESGGGLVQAGGSLRLSCAASGSTFRYYAMGWYRQAPGKERELVAAISRSGGRTYYADSVKGRFTISRDNAKNTVYLQMNSLKPEDTAVYYCATRGDGSSWGDYDYWGQGTQVTVSS
polyreactivity (PSR sort gate): high polyreactivity

QVQLVESGGGLVQAGGSLRLSCAASGGTLQGNAMGWYRPAPGKERELVAAISSRGGRTYYADSVKGRFTSSRDNAKNTVYLQMNSLKPEDTAVYYCNAEYPVYFEGYPYYWDYWGDSWGQGTQVTVSS
polyreactivity (PSR sort gate): high polyreactivity

QVQLVESGGGLVQAGGSLRLSCAASGSIFISYAMGWYRQAPGTERELVAAITWSGDSTYYADSVKGRFTISRDNAKNTVYLQMNSLKPEDTAVYYCAADWYFRNQRGYYWGQGTQVTVSS
polyreactivity (PSR sort gate): low polyreactivity

QVQLVESGGGLVQAGGSLRLSCAASGSTYRWYAMGWYRQAPGKEREFVAAITWSGGRTYYADSVKGRFTISRDNAKNTVYLQMNSLKTEDTAVYYCNADDYGYSFNYWGQGTQVTVSS
polyreactivity (PSR sort gate): high polyreactivity

QVQLVESGGGLVQAGGSLLLSCAASGSTFDDKAMGWYRQAPGKERELVAAISSDGSTNYADSVKGRFTISRDTAKNTVYLQMNCLKPADTAVYYCAAESPWDWGSWFEALYDYWGLGTQVTVSS
polyreactivity (PSR sort gate): high polyreactivity

QVQLVESGGGLVQAGGSLRLSCAASGLIFGEYDMGWYRQAPGKERELVAAISDRGTSTYYADSVKGRFTISRDNAKNTVYLQMNSLKPEDTAVYYCATDRNYYYSWEYDYWGQGTQVTVSS
polyreactivity (PSR sort gate): low polyreactivity

QVQLVESGGGLVQAGGSLRLICAASGYIFRYYVMGWYRQAPGKERELVAAITGIDGSTYYADSVKGRFTISRDNAKNTVYLQMNSLKPEDTAVYYCAAVIGDSSYTFYYDMDYWGQGTQVTVSS
polyreactivity (PSR sort gate): low polyreactivity

QVQLVESGGGLVQAGGSLRLSCAASGGIFASNAMGWYRQAPGKERELVATITRGGSTNYADSVKGRFTISRDNAKNTVYLQLNSLKPEDTAVYYCAARFYSRAFWPAYYYWGQGTQVTVSS
polyreactivity (PSR sort gate): high polyreactivity

QVQLVESGGGLVQAGGSLRLSCAASGSTYEYNAMGWYRQAPGKERELVAGISSGGSTYYADSVKGRFTISRDNAKNTVYLQMNSLKPEDTAVYYCATSEASVATWDRYTELDYWGQGSQVTVSS
polyreactivity (PSR sort gate): low polyreactivity

QVQLVESGGGLVQAGGSLRLSCAASGFTFRDYSMGWYRQAPGKERELVAAMSFSGGRTFYADSVKGRFTISRDNGKNTVYLQMNSLKPEDTAVYFCNAQYLTSRYYPRRNLDYWGQGTQVTVSS
polyreactivity (PSR sort gate): high polyreactivity

QVQLVESGGGLVQAGGSLRLSCAASGNIFLSYAIGCYRQAPGKEREFVPAIRWSGASTYYADSVKGRFTISRDNAKNTVELQMNSLKPEDTAVYYCGRRALCPRRGIRYDYWGQGSQVTVSS
polyreactivity (PSR sort gate): high polyreactivity

QVQLVESGGGLVQAGGSLRLSCAASGFTFVYNAMGWYRQAPGKERELVAAITSGGNTYYADSVKGRFTISRDNAKNTVYLQMNSLKPEDTAVYYCAKRGYGRYYAYDYWGQGTQVTVSS
polyreactivity (PSR sort gate): high polyreactivity

QVQLVESGGGLVQAGGSLRLSCAASGFIFVANAMGWYRQAPGKERELVADINRGSTYYADSVKGRFTISRDNAKNTVYLQMNSLKPEDTAVYYCNRVYTQTYNPWGFEYWGQGTQVTVSS
polyreactivity (PSR sort gate): high polyreactivity

QVQLVESGGGLVQAGGSLRLSCAASGRTSVINAMGWYRQAPGKERELVATITWSGASTYYADSVKGRFTISRDNAKNTLYLQMNSLKPEVTAVYYCATDSAQYGYDYWGQGTQVTVSS
polyreactivity (PSR sort gate): low polyreactivity

QVQLVESGGGLVQPGGSLRLSCAASGRIFGRYAMGWYRQAPGKERELVAAISRGGTTNYADSVKGRFTISRDNAKNTVYLQMNSLKPEDTAVYYCAKSGPKRGQYDYWGQGTLVTVSS
polyreactivity (PSR sort gate): high polyreactivity

QVQLVESGGGLVQAGGSLRLSCAASGSTFWYYAMGWYRQAPGKERELVASITYSGGSTYYADSVKGRFTISRDNAKNTVYLQMNSLKPEDTAVYYCAAEGYYSNYHFWGQGTQVTVSS
polyreactivity (PSR sort gate): low polyreactivity

QVQHVESGGGLVQAGGSLRLSCAASGSILFKYAMGWSRQAPGQESELVATITSGGSTYYADSVKGRVTISRDNAKNTVYLQMNSLKPEDTAVYYCATGQYYYDGIVAFFELDYWGQGTQVTVSS
polyreactivity (PSR sort gate): low polyreactivity

QVQLVESGGGLVQAGGSLRLSCAASGRTFRFYAMGWYRQAPGKEREFVASISRGGITYYADSVKGRFTISRDNAKNTVYLQMNSLKPEDTAVYYCAAGYPVLLERYSSFGGYYYWGHGTQVTVSS
polyreactivity (PSR sort gate): high polyreactivity
